Laboratory results from article PMC5760668, “Structure function and engineering of multifunctional non-heme iron dependent oxygenases in fungal meroterpenoid biosynthesis” (Nature Communications, 2018).

T1: PrhA-(6P-A298), N-terminal truncated and C-terminal chimeric PrhA (Penicillium brasilianum, UniProt A0A1E1FFL0, E295I/A296S/P297S/S298A)
T1 construct: crystal construct PrhA-(6P-A298): residues from Pro6, C-terminal Glu295-Val301 replaced by AusE Ile295-Ser296-Ser297-Ala298, in pET28a, EDTA-treated; homodimer; Asp276′ of the other chain contacts substrate
T1 sequence (A0A1E1FFL0 6-298 E295I/A296S/P297S/S298A): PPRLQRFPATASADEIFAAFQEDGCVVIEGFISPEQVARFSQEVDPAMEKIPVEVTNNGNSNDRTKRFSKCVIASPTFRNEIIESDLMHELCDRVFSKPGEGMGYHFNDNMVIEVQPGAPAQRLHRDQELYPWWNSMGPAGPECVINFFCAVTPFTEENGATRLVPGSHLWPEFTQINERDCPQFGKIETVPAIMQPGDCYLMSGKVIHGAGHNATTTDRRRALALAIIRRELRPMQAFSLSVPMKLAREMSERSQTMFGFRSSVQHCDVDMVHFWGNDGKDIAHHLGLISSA

T2: AusE-(6P-A298) (Aspergillus nidulans, UniProt Q5AR34)
T2 construct: crystal construct, N-terminal truncated 6P-A298 in pET28a, E. coli, EDTA-treated, Mn(II) reconstituted; homodimer
T2 sequence (Q5AR34 6-298): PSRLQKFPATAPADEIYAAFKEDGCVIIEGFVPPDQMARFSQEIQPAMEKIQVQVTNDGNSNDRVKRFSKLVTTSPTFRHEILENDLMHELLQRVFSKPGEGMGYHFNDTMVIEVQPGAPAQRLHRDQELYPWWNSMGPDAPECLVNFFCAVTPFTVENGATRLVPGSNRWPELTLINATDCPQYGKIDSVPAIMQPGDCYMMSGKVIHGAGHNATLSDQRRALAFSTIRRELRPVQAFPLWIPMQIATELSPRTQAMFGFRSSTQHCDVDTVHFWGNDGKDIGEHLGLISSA


What was measured:
[1] = target: T1, PrhA-(6P-A298), N-terminal truncated and C-terminal chimeric PrhA; assay: X-ray crystal structure; assay type: binding; conditions: Fe(II); crystal soaked with αKG; co-substrate, bidentate chelation
AusE-(6P-A298) = target: T2, AusE-(6P-A298); assay: X-ray crystal structure; assay type: binding; conditions: Mn(II), anaerobic; co-substrate
[2] = target: the molecule itself; assay: crystal structure; anaerobic vapor diffusion at 20 °C; AusE with MnCl2 (and αKG); PrhA and mutants crystallised as apo form and soaked with FeSO4, αKG and substrate; homodimer in the crystal
[3] = target: the molecule itself; assay: dynamic light scattering; purified enzymes; monomodal distribution, polydispersity 18.2 and 21.1%; predicted masses compared with the calculated 35.1 kDa

Molecule	stoichiometry N [2]	stoichiometry N [3]	further results
O=C(O)CCC(=O)C(=O)O [α-ketoglutarate]	–	–	X-ray crystal structure [1]: in complex with Fe(II) and αKG (PrhA-Fe/αKG); X-ray crystal structure (AusE-(6P-A298)): X-ray crystal structures of AusE complexed with Mn(II) and αKG (AusE-Mn/αKG)
N-terminal truncated AusE-(6P-A298) (enzyme, Aspergillus nidulans, UniProt Q5AR34 6-298, looked up, AusE, Fe(II)/αKG-dependent oxygenase of austinol biosynthesis, Aspergillus nidulans; residues P6-A298, cloned NdeI/BamHI into pET28a; Crystallised with Mn(II), and with Mn(II) and αKG; also called AusE-Mn; AusE-Mn/αKG; source: E. coli Rosetta 2(DE3)pLysS, purified (HisTrap HP, HiTrap Q HP, EDTA treatment, Superdex 200)) PSRLQKFPATAPADEIYAAFKEDGCVIIEGFVPPDQMARFSQEIQPAMEKIQVQVTNDGNSNDRVKRFSKLVTTSPTFRHEILENDLMHELLQRVFSKPGEGMGYHFNDTMVIEVQPGAPAQRLHRDQELYPWWNSMGPDAPECLVNFFCAVTPFTVENGATRLVPGSNRWPELTLINATDCPQYGKIDSVPAIMQPGDCYMMSGKVIHGAGHNATLSDQRRALAFSTIRRELRPVQAFPLWIPMQIATELSPRTQAMFGFRSSTQHCDVDTVHFWGNDGKDIGEHLGLISSA	2	–	–
wild-type PrhA (PrhA-(M1-V301)) (enzyme, Penicillium brasilianum, UniProt A0A1E1FFL0 1-301, looked up, PrhA, Fe(II)/αKG-dependent oxygenase, Penicillium brasilianum; It may have been the chimeric 6-298 crystallisation construct; also called recombinant PrhA; source: E. coli Rosetta 2(DE3)pLysS, purified (HisTrap HP, HiTrap Q HP, Superdex 200)) MAPMIPPRLQRFPATASADEIFAAFQEDGCVVIEGFISPEQVARFSQEVDPAMEKIPVEVTNNGNSNDRTKRFSKCVIASPTFRNEIIESDLMHELCDRVFSKPGEGMGYHFNDNMVIEVQPGAPAQRLHRDQELYPWWNSMGPAGPECVINFFCAVTPFTEENGATRLVPGSHLWPEFTQINERDCPQFGKIETVPAIMQPGDCYLMSGKVIHGAGHNATTTDRRRALALAIIRRELRPMQAFSLSVPMKLAREMSERSQTMFGFRSSVQHCDVDMVHFWGNDGKDIAHHLGLEAPSVHV	–	2	–
wild-type AusE (AusE-(M1-A298)) (enzyme, Aspergillus nidulans, UniProt Q5AR34 1-298, looked up, AusE, Fe(II)/αKG-dependent oxygenase, Aspergillus nidulans; It may have been the 6-298 crystallisation construct; also called recombinant AusE; source: E. coli Rosetta 2(DE3)pLysS, purified (HisTrap HP, HiTrap Q HP, Superdex 200)) MGSATPSRLQKFPATAPADEIYAAFKEDGCVIIEGFVPPDQMARFSQEIQPAMEKIQVQVTNDGNSNDRVKRFSKLVTTSPTFRHEILENDLMHELLQRVFSKPGEGMGYHFNDTMVIEVQPGAPAQRLHRDQELYPWWNSMGPDAPECLVNFFCAVTPFTVENGATRLVPGSNRWPELTLINATDCPQYGKIDSVPAIMQPGDCYMMSGKVIHGAGHNATLSDQRRALAFSTIRRELRPVQAFPLWIPMQIATELSPRTQAMFGFRSSTQHCDVDTVHFWGNDGKDIGEHLGLISSA	–	2	–
N-terminal truncated and C-terminal chimeric PrhA-(6P-A298) (enzyme, PrhA, Fe(II)/αKG-dependent oxygenase of paraherquonin biosynthesis, Penicillium brasilianum; from P6 up to the residue before Glu295 (Glu295-Val301 were replaced); AusE, Aspergillus nidulans, residues Ile295-Ser296-Ser297-Ala298, put in place of PrhA Glu295-Val301; Crystallised as apo form; Fe(II), αKG and preaustinoid A1 (5) were soaked in; also called PrhA-Fe; PrhA-Fe/αKG; source: E. coli …) PPRLQRFPATASADEIFAAFQEDGCVVIEGFISPEQVARFSQEVDPAMEKIPVEVTNNGNSNDRTKRFSKCVIASPTFRNEIIESDLMHELCDRVFSKPGEGMGYHFNDNMVIEVQPGAPAQRLHRDQELYPWWNSMGPAGPECVINFFCAVTPFTEENGATRLVPGSHLWPEFTQINERDCPQFGKIETVPAIMQPGDCYLMSGKVIHGAGHNATTTDRRRALALAIIRRELRPMQAFSLSVPMKLAREMSERSQTMFGFRSSVQHCDVDMVHFWGNDGKDIAHHLGLISSA	2	–	–
